Positions count from the first letter of the chain named. Names and notes keep the numbering of the source. Read-outs that look alike come from different tables or passages of the source.
T1: mouse CCR8 (mouse)
T1 chain: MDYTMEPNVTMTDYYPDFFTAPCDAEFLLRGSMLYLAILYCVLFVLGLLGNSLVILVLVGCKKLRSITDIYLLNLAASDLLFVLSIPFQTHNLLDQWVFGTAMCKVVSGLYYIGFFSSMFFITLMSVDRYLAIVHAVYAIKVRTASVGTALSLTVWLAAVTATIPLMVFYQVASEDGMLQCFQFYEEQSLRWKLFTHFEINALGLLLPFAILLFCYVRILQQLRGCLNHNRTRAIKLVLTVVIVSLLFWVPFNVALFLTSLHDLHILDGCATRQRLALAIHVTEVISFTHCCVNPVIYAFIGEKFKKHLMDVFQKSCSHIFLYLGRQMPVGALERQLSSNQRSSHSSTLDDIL

T2: human CCR4 (human)
T2 chain: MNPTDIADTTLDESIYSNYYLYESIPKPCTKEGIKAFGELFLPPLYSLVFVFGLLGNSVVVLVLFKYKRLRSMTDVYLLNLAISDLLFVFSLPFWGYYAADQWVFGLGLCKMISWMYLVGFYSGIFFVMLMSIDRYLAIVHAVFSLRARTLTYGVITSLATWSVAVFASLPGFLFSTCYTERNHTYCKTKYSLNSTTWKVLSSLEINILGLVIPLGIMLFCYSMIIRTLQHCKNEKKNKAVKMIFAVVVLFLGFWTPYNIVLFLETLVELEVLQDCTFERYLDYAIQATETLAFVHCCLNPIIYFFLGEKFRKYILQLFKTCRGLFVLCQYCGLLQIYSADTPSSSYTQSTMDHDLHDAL

T3: human CX3CR1 (human)
T3 chain: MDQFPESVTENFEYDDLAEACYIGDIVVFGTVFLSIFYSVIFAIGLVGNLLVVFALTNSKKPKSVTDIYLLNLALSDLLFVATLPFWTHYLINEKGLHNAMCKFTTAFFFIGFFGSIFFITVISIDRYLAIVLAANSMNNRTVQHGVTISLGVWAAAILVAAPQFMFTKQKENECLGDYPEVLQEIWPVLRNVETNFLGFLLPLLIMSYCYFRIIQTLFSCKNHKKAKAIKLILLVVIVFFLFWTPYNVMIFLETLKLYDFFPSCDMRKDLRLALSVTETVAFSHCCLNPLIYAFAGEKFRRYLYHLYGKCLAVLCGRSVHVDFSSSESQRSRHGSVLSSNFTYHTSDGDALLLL

B1: 11F8-SG-11F8-SG (antibody, V domains shown)
VH: QVQLVESGGGVVQPGRSLRLSCAASGFTFSTYVMHWVRQAPGKGLEWVAVISYSGNNKYYADSVKGRFIISRDNSKNTLFLQMNSLRGEDTAVYYCARGRSYVNYYGLDVWGQGTTVTVSS
VL: DIVMTQTPLSLSVTPGQPASISCKSSQSLLYSSGKTYLYWYLQKPGQPPHLLIYEVSNRFSGVPKRFSGSGSGTDFTLKISRVEAEDVGVYYCMQSVKIPLTFGGGTKVEIK
B2: 11F5-Y6N-11F5 (antibody, V domains shown)
VH: EVQLVESGGGVVQPGRSLRLSCAASGFTFSSYVVHWVRQAPGKGLEWVAVISYDGDNKFYADSVKGRFTISRDNSKNTLYLQMNSLRTEDTAVYYCARGRNYYNYYGLDVWGQGTTVTVSS
VL: B1 VL with S33D, P45A, H50Q, K65D, Y91F, V97L, I99V, L101P, G105Q, E110D
B3: 11B12-SG-11F8 (antibody, V domains shown)
VH: QVQLVESGGGVVQPGRSLRLSCAASGFSFSSYVMHWVRQAPGKGLEWVAVISYSGSDKYYADSVKGRFTISRDNSKNTLFLQMNSLRPEDTAVYYCARGRGYRYGQSYYYGMDVWGQGTTVTVSS
VL: B1 VL with S33D
B4: 11B12-DNA-11B12 (antibody, V domains shown)
VH: B3 VH with S54D, S75A
VL: B1 VL with S33D, H50Q, L51I, Y54F, K65D, V97I, I99L
B5: 11B12-SG-11B12-AG (antibody, V domains shown)
VH: B3 VH
VL: B1 VL with S33A, H50Q, L51I, Y54F, K65D, V97I, I99L
B6: 11F5-11F8 (antibody, V domains shown)
VH: B2 VH with N104Y
VL: B1 VL with S33D
B7: 11F5-N3S-11F5 (antibody, V domains shown)
VH: B2 VH with N101S, N104Y
VL: B1 VL with S33D, P45A, H50Q, K65D, Y91F, V97L, I99V, L101P, G105Q, E110D
B8: 11F5-Y5V-11F5 (antibody, V domains shown)
VH: B2 VH with Y103V, N104Y
VL: B1 VL with S33D, P45A, H50Q, K65D, Y91F, V97L, I99V, L101P, G105Q, E110D
B9: 11F5-N3S-Y5V-Y6N-11F5 (antibody, V domains shown)
VH: B2 VH with N101S, Y103V
VL: B1 VL with S33D, P45A, H50Q, K65D, Y91F, V97L, I99V, L101P, G105Q, E110D
B10: 11F8-DA-11F8-DA (antibody, V domains shown)
VH: B1 VH with S54D, G55A
VL: B1 VL with S33D, G34A
B11: 11B12-SG-11F8-SG (antibody, V domains shown)
VH: B3 VH
VL: B1 VL
B12: 11B12-11F8 (antibody, V domains shown)
VH: B3 VH with S54D
VL: B1 VL with S33D
B13: 11F5-Y5V-Y6N-11F5 (antibody, V domains shown)
VH: B2 VH with Y103V
VL: B1 VL with S33D, P45A, H50Q, K65D, Y91F, V97L, I99V, L101P, G105Q, E110D
B14: 11F5-N3S-Y5V-11F5 (antibody, V domains shown)
VH: B2 VH with N101S, Y103V, N104Y
VL: B1 VL with S33D, P45A, H50Q, K65D, Y91F, V97L, I99V, L101P, G105Q, E110D
B15: 11F5-N3S-Y6N-11F5 (antibody, V domains shown)
VH: B2 VH with N101S
VL: B1 VL with S33D, P45A, H50Q, K65D, Y91F, V97L, I99V, L101P, G105Q, E110D
B16: 11B12-AG-11B12-DA (antibody, V domains shown)
VH: B3 VH with S54A
VL: B1 VL with S33D, G34A, H50Q, L51I, Y54F, K65D, V97I, I99L
B17: 11F5-SG-11F5-SG (antibody, V domains shown)
VH: B2 VH with D54S, N104Y
VL: B1 VL with P45A, H50Q, K65D, Y91F, V97L, I99V, L101P, G105Q, E110D
B18: 11F5-11B12 (antibody, V domains shown)
VH: B2 VH with N104Y
VL: B1 VL with S33D, H50Q, L51I, Y54F, K65D, V97I, I99L
B19: 11F8-AG-11F8-AG (antibody, V domains shown)
VH: B1 VH with S54A
VL: B1 VL with S33A
B20: 11B12-11F8-SG (antibody, V domains shown)
VH: B3 VH with S54D
VL: B1 VL
B21: 11F8-SG-11F8-AG (antibody, V domains shown)
VH: B1 VH
VL: B1 VL with S33A
B22: 11B12-11F5 (antibody, V domains shown)
VH: B3 VH with S54D
VL: B1 VL with S33D, P45A, H50Q, K65D, Y91F, V97L, I99V, L101P, G105Q, E110D
B23: Plozalizuzumab analog (antibody, V domains shown)
VH: EVQLVESGGGLVKPGGSLRLSCAASGFTFSAYAMNWVRQAPGKGLEWVGRIRTKNNNYATYYADSVKDRFTISRDDSKNTLYLQMNSLKTEDTAVYYCTTFYGNGVWGQGTLVTVSS
VL: DVVMTQSPLSLPVTLGQPASISCKSSQSLLDSDGKTFLNWFQQRPGQSPRRLIYLVSKLDSGVPDRFSGSGSGTDFTLKISRVEAEDVGVYYCWQGTHFPYTFGQGTRLEIK

Assays:
Assay in all cases: FACS
[1] = biological target: T1, mouse CCR8
[2] = biological target: human CCR8 (human)
[3] = biological target: human CCR8 (human); remark: listed apart in the source
[4] = biological target: T1, mouse CCR8
[5] = biological target: T1, mouse CCR8
[6] = biological target: human CCR8 (human); remark: listed apart in the source
[7] = biological target: T2, human CCR4
[8] = biological target: human CCR8 (human); remark: listed apart in the source
[9] = biological target: human CCR5 (human)
[10] = biological target: T3, human CX3CR1

Chain of human CCR8 (human) (chain, as listed by the source): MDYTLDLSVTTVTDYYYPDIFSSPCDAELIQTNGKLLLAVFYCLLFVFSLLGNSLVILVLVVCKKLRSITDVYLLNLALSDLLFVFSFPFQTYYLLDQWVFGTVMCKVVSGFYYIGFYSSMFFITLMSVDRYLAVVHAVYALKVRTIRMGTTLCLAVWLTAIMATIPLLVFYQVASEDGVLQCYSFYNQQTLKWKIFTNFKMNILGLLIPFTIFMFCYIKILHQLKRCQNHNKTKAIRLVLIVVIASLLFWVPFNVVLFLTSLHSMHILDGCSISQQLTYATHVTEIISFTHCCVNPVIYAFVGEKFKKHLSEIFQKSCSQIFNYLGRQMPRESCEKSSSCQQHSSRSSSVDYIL
Chain of human CCR5 (human) (O14692 whole entry): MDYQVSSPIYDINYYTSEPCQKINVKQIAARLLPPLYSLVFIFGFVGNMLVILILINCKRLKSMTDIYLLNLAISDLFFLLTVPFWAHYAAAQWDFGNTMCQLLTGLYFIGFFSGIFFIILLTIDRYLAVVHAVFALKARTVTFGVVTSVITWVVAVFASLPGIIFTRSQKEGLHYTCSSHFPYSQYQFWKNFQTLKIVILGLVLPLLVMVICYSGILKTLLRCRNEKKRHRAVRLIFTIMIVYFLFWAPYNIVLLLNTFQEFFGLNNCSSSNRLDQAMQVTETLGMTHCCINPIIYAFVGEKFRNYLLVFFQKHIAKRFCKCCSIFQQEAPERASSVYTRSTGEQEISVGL

Row | Binder | EC50 [3] | EC50 [4] | EC50 [5] | EC50 [6] | further results
1 | B1 |  |  |  |  | EC50 [1]: 0.053 µg/mL; EC50 [2]: 0.015 µg/mL
2 | B2 | 0.254 µg/mL | 0.198 µg/mL |  |  | 
3 | B3 |  |  |  |  | EC50 [1]: 0.055 µg/mL; EC50 [2]: 0.051 µg/mL
4 | B4 |  |  |  |  | EC50 [1]: 0.084 µg/mL; EC50 [2]: 0.144 µg/mL
5 | B5 |  |  | 0.042 µg/mL | 0.047 µg/mL | 
6 | B6 |  |  | 0.184 µg/mL | 0.162 µg/mL | 
7 | B7 | 0.168 µg/mL | 0.119 µg/mL |  |  | 
8 | B8 | 0.714 µg/mL | 0.762 µg/mL |  |  | 
9 | B9 | 0.21 µg/mL | 0.141 µg/mL |  |  | 
10 | B10 |  |  | 0.128 µg/mL | 0.222 µg/mL | 
11 | B11 |  |  | 0.099 µg/mL | 0.009 µg/mL | 
12 | B12 |  |  |  |  | EC50 [1]: 0.1 µg/mL; EC50 [2]: 0.152 µg/mL
13 | B13 | 0.592 µg/mL | 0.546 µg/mL |  |  | 
14 | B14 | 0.228 µg/mL | 0.129 µg/mL |  |  | 
15 | B15 | 0.174 µg/mL | 0.105 µg/mL |  |  | 
16 | B16 |  |  | 0.074 µg/mL | 0.073 µg/mL | 
17 | B17 |  |  |  |  | EC50 [1]: 0.069 µg/mL; EC50 [2]: 0.033 µg/mL
18 | B18 |  |  | 0.163 µg/mL | 0.132 µg/mL | 
19 | B19 |  |  | 0.148 µg/mL | 0.033 µg/mL | 
20 | B20 |  |  | 0.12 µg/mL | 0.165 µg/mL | 
21 | B21 |  |  | 0.218 µg/mL | 0.05 µg/mL | 
22 | B22 |  |  | 0.171 µg/mL | 0.298 µg/mL | 
23 | B23 |  |  |  |  | binding result [7]: no binding; binding result [8]: no binding; binding result [9]: no binding; binding result [10]: no binding

— patent publication US20260337282 (published 2026)
